# Source: patent US20120171723A1
# Biological target: human zFGF5 (FGF homolog polypeptide) (human) (UniProt O76093)
# Assay: cell-based or functional assay
# human zFGF5 (FGF homolog polypeptide) (human), sequence (O76093 28-207): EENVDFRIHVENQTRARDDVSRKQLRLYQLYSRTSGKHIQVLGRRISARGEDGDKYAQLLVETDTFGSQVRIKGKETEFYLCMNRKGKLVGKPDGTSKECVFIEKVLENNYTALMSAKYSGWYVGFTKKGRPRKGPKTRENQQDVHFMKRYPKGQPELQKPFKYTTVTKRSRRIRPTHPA
Cell Proliferation (percent of control) at 0 fold-excess of soluble receptor (percent of control),Cell Proliferation (percent of control) at 62.5 fold-excess of soluble receptor (percent of control),Cell Proliferation (percent of control) at 125 fold-excess of soluble receptor (percent of control),Cell Proliferation (percent of control) at 250 fold-excess of soluble receptor (percent of control),Cell Proliferation (percent of control) at 500 fold-excess of soluble receptor (percent of control),Cell Proliferation (percent of control) at 1000 fold-excess of soluble receptor (percent of control),Cell Proliferation (percent of control) at 0.8 fold-excess of soluble receptor (percent of control),Cell Proliferation (percent of control) at 1.6 fold-excess of soluble receptor (percent of control),Cell Proliferation (percent of control) at 3.2 fold-excess of soluble receptor (percent of control),Cell Proliferation (percent of control) at 6.3 fold-excess of soluble receptor (percent of control),Cell Proliferation (percent of control) at 12.5 fold-excess of soluble receptor (percent of control),Cell Proliferation (percent of control) at 25 fold-excess of soluble receptor (percent of control),Cell Proliferation (percent of control) at 50 fold-excess of soluble receptor (percent of control),Cell Proliferation (percent of control) at 100 fold-excess of soluble receptor (percent of control),Substance
100,101,90,91,101,99,–,–,–,–,–,–,–,–,FGFR2α-IIIb/Fc soluble receptor (from UniProt P21802 22-378) (Fc fusion)
100,–,–,–,–,–,85,66,37,5,1,0.2,0,0,FGFR3α-IIIc/Fc soluble receptor (Fc fusion)
